Numbering of substitutions follows the chain as printed. “Also recorded” adds a separate entry of the source.
Assays:
E. coli PNPase = molecular target: T1, E. coli PNPase (E. coli, UniProt P05055 1-711); assay: SEC-MALS; Superdex 200 10/300 Increase, 100 µl at ~1 mg/ml, 25°C; buffer A (50 mM Tris pH 7.5, 100 mM NaCl, 100 mM KCl, 0.01% w/v b-DDM, 1 mM TCEP) or B (A without b-DDM) as Table S2 tells for each sample; the 1:1 ratio is one RNase E segment to one PNPase trimer (expected mass = trimer plus one segment); settings: both partners purified
T1 construct: polynucleotide phosphorylase (PNPase), E. coli; also called polynucleotide phosphorylase; full-length PNPase; source: E. coli BL21(DE3), purified (ammonium sulfate, Q, butyl-Sepharose, SEC)
T1 sequence (looked up): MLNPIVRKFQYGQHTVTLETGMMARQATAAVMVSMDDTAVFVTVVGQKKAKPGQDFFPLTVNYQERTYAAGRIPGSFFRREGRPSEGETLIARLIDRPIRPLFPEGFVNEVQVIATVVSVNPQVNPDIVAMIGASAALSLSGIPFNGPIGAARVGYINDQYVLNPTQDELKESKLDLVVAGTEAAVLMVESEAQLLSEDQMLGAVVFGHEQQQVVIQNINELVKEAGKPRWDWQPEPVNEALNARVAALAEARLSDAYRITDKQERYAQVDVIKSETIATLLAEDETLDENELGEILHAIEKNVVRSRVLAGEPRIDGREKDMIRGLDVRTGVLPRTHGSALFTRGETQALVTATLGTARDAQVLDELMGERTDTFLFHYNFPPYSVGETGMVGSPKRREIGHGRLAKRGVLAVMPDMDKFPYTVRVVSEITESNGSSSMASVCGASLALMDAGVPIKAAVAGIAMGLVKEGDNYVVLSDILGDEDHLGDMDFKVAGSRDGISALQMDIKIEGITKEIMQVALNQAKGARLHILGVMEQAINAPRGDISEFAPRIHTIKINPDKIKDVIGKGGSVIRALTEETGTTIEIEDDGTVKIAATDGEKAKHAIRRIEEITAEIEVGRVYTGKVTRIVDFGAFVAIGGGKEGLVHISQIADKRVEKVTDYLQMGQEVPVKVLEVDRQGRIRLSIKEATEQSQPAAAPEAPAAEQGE

PNPase = molecular target: T2, PNPase (Escherichia coli, UniProt P05055); type: binding, E. coli
T2 construct: made in house; host or cells: E. coli Evo21(DE3)
T2 sequence (P05055 whole entry, looked up): T1 sequence (looked up)
Excerpt: Briefly, at the N-terminal of the construct, there is an Hisx6 affinity tag that will be used for affinity purification. Following the Hisx6 tag there is an maltose-binding protein (MBP) tag with a TEV cleavage site to maintain solubility of the peptides. Following the MBP tag the gene encoding the peptide is inserted, and is then followed by intein, a self-cleavable tag, followed by a choline-binding domain, which can be used for an extra step of affinity purification. […] After expression, cells were harvested, resuspended in Lysis Buffer 2 (20 mM Tris–HCl, pH 8.0, 80 mM KCl, 300 mM NaCl, 20 mM Imidazole, 0.5 mM TCEP), and lysed with a cell disruptor (Emulsiflex, Avestin). […] After subsequent rounds of washing with Ni Equilibration Buffer supplemented with, respectively, 0.1% Triton-X, 1 M NaCl, and a final wash in Ni Equilibration Buffer, samples were eluted with Ni Elution Buffer (20 mM Tris–HCl, pH 8.0, 300 mM NaCl, 300 mM imidazole, 0.5 mM TCEP). Enriched fractions were then supplemented with 100 mM β-mercaptoethanol to catalyse intein self-cleavage overnight at room temperature. Treated samples were filtered and loaded on an amylose gravity flow column, equilibrated with Amy Equilibration Buffer (20 mM Tris–HCl, pH 8.0, 20 mM NaCl, 20 mM imidazole, 2 mM β-mercaptoethanol) and after washing, His-tagged TEV protease was applied to the resin and incubated at 4°C for 2 h.
PNPase carrying a C-terminal Hisx6 tag was expressed from pExp-cis-Ec_PNP-CHis vector in E. coli Evo21(DE3) cells, induced with 0.4 mM IPTG, at 18°C overnight. After expression, cells were harvested and resuspended in Lysis Buffer 2 (20 mM Tris–HCl, pH 8.0, 80 mM KCl, 300 mM NaCl, 20 mM imidazole, 0.5 mM TCEP), and lysed with a cell disruptor (Emulsiflex, Avestin). […] After subsequent rounds of washing with equilibration buffer supplemented with 0.1% Triton-X, or 1 M NaCl, the sample was eluted with Ni PNPCHis Elution Buffer (20 mM NaH2PO4, pH 8.0, 300 mM NaCl, 300 mM KCl, 5 mM MgCl2, 300 mM imidazole, pH 7.5, 10 mM β-mercaptoethanol). […] Fractions containing PNPase were run through a HiPrep™ 26/10 Desalting Column (GE Healthcare) and buffer exchanged to Q PNPCHis A (20 mM NaH2PO4, pH 8.0, 30 mM NaCl, 10% glycerol, 0.5 mM TCEP).
Interaction measurements were made using a Biacore T200 instrument (GE) at 25°C. PNPase with a 6xHisTag at the CTD was immobilized on a Series S Sensor Chip NTA (Cytiva) to provide a signal of 5 response units (RU). […] For the SPR analysis of the point mutants, binding to PNPase was measured at four different concentrations (0, 12.5, 25, and 50 nM). All concentrations were run in duplicates. The contact time was 60 s, while the dissociation time was 120 s, at a […] flow rate. […] The chip surface was regenerated with 350 mM EDTA in water, following manufacturer's instructions. Data were processed using the manufacturer’s BIAevaluation software.

[1] = molecular target: T3, PNPase carrying a C-terminal Hisx6 tag (E. coli polynucleotide phosphorylase) (E. coli, UniProt P05055 1-711); assay: SPR; PNPase with C-terminal His6 tag immobilised on Series S Sensor Chip NTA (5 RU); Biacore T200, 25°C; 20 mM HEPES pH 7.2, 150 mM NaCl, 5 mM MgCl2, 0.5 mM TCEP, 0.05% Tween 20; six peptide concentrations up to 9000 nM (up to 5000 nM for RNase E 985–1061); contact 60 s, dissociation 120 s; settings: both partners purified
T3 construct: polynucleotide phosphorylase (PNPase), E. coli; Immobilised through the His tag on an NTA chip for SPR; also called PNPase C-His; PNPase with a 6xHisTag at the CTD; source: E. coli Evo21(DE3), purified (Ni-NTA, butyl-Sepharose HIC, Q, Superdex S200); not shown: His6, C-terminal, kept
T3 sequence (looked up): T1 sequence (looked up)

[2] = SPR, mutant vs wildtype RNase E 960–1061

B1: RNase E 583-1061, avi-tagged (domain or fragment, E. coli, UniProt P21513 583-1061, looked up)
chain: SGGEETKPTEQPAPKAEAKPERQQDRRKPRQNNRRDRNERRDTRSERTEGSDNREENRRNRRQAQQQTAETRESRQQAEVTEKARTADEQQAPRRERSRRRNDDKRQAQQEAKALNVEEQSVQETEQEERVRPVQPRRKQRQLNQKVRYEQSVAEEAVVAPVVEETVAAEPIVQEAPAPRTELVKVPLPVVAQTAPEQQEENNADNRDNGGMPRRSRRSPRHLRVSGQRRRRYRDERYPTQSPMPLTVACASPELASGKVWIRYPIVRPQDVQVEEQREQEEVHVQPMVTEVPVAAAIEPVVSAPVVEEVAGVVEAPVQVAEPQPEVVETTHPEVIAAAVTEQPQVITESDVAVAQEVAEQAEPVVEPQEETADIEEVVETAEVVVAEPEVVAQPAAPVVAEVAAEVETVAAVEPEVTVEHNHATAPMTRAPAPEYVPEAPRHSDWQRPTFAFEGKGAAGGHTATHHASAAPARPQPVE
notes: The construct is described nowhere in the methods
E. coli PNPase
  stoichiometry N: 1

B2: RNase E 960–1039: RNase E peptide carrying the plausible secondary binding motif β2 (peptide)
chain: VVETAEVVVAEPEVVAQPAAPVVAEVAAEVETVAAVEPEVTVEHNHATAPMTRAPAPEYVPEAPRHSDWQRPTFAFEGKG
modifications: left off: His6, N-terminal, cleaved | MBP, N-terminal, cleaved | intein, C-terminal, cleaved | choline-binding domain, C-terminal, cleaved
PNPase; pH 7.2
  binding to PNPase (detected or not): does not interact with PNPase; also recorded: no binding was detected

B3: RNase E 985-1061 (domain or fragment, E. coli, UniProt P21513 985-1061, looked up)
chain: VAAEVETVAAVEPEVTVEHNHATAPMTRAPAPEYVPEAPRHSDWQRPTFAFEGKGAAGGHTATHHASAAPARPQPVE
notes: source: E. coli Evo21(DE3), pMxe vector, purified (Ni-NTA, amylose, TEV, Q, Superdex 75); not shown: His6, N-terminal, cleaved; MBP, N-terminal, cleaved; intein, C-terminal, cleaved
[1]
  Kd: 4.02 nM
  koff: 0.0158 s⁻¹
  kon: 3.93e+06 M⁻¹ s⁻¹

B4: RNase E 985-1061: RNase E peptide that includes both β1 and β2 motifs (peptide)
chain: B3 chain
modifications: left off: His6, N-terminal, cleaved | MBP, N-terminal, cleaved | intein, C-terminal, cleaved | choline-binding domain, C-terminal, cleaved
notes: RNase E peptide that includes both β1 and β2 motifs
PNPase
  cause of increase in affinity over 1039–1061, in words: both acceleration of on-rate and decrease of off-rate
PNPase; pH 7.2
  KD range in words: from the micromolar range to the low nanomolar range
  k a: 3.93E + 6 1/M s
  k d: 0.0158 s⁻¹

B5: RNase E 960-1061 (in the SEC-MALLS sample with PNPase) (domain or fragment, E. coli, UniProt P21513 960-1061, looked up)
chain: VVETAEVVVAEPEVVAQPAAPVVAEVAAEVETVAAVEPEVTVEHNHATAPMTRAPAPEYVPEAPRHSDWQRPTFAFEGKGAAGGHTATHHASAAPARPQPVE
notes: The expected mass of the complex fits one untagged segment of 10,585 Da on a PNPase trimer
E. coli PNPase
  stoichiometry N: 1

B6: RNase E 960 – 1061 R1012AR10546A: RNase E peptide with mutation of both Arg1012 and Arg1056 to alanine (peptide)
chain: B5 chain with R53A, R97A
modifications: left off: His6, N-terminal, cleaved | MBP, N-terminal, cleaved | intein, C-terminal, cleaved | choline-binding domain, C-terminal, cleaved
notes: RNase E peptide with mutation of both Arg1012 and Arg1056 to alanine
PNPase; SPR, 25°C, immobilized PNPase C-His, HEPES pH 7.2, 0, 12.5, 25 and 50 nM (point mutants), contact 120 s, dissociation 120 s, duplicates
  Kd (dissociation rate constant, point mutants and wildtype): 0.12 s⁻¹
PNPase; SPR, 25°C, immobilized PNPase C-His, contact 120 s
  KD range in words (double mutant): low micromolar range
PNPase; SPR, double mutant vs slowest-binding single mutant (R1056A)
  association rate compared to R1056A, in words: ten-fold slower
PNPase; [2]
  association rate compared to the wildtype, in words: about two orders of magnitude slower
  dissociation rate (off-rate) compared to the wildtype, in words: faster off-rate
PNPase; SPR, mutant vs wildtype RNase E 960–1061, listed as R1012AR1056A
  effect on KD / binding compared to the wildtype, in words: significant decrease in binding; also recorded: significantly affected the binding to PNPase

B7: RNase E 985-1053: RNase E peptide lacking the terminal Pro-rich motif (peptide)
chain: VAAEVETVAAVEPEVTVEHNHATAPMTRAPAPEYVPEAPRHSDWQRPTFAFEGKGAAGGHTATHHASAA
modifications: left off: His6, N-terminal, cleaved | MBP, N-terminal, cleaved | intein, C-terminal, cleaved | choline-binding domain, C-terminal, cleaved
notes: RNase E peptide lacking the terminal Pro-rich motif
PNPase
  binding compared with the peptide including the region with Arg1056, in words: significantly weaker binding
PNPase; pH 7.2
  KD range in words: high micromolar
  k a: 2.94E + 4 1/M s
  k d: 0.339 s⁻¹

B8: RNase E 1039-1061 (peptide, UniProt P21513 1039-1061, looked up)
chain: GAAGGHTATHHASAAPARPQPVE
notes: as for B3
[1]
  Kd: 5920 nM
  koff: 0.833 s⁻¹
  kon: 140000 M⁻¹ s⁻¹

— PMC12489471, “A multi-dentate, cooperative interaction between endo- and exo-ribonucleases within the bacterial RNA degradosome” (Nucleic Acids Research, 2025)
